Experimental data taken from the supplement of paper PMC9876800.

Tested on: peptide library, one residue held at a place counted from the S/T acceptor
Assay: relative phosphorylation of the sub-library (ratio to the mean residue at this position); higher = residue favoured
Details: human
Method in brief: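 In 384-well plates, purified recombinant kinases (human or orthologue constructs) were incubated for 90 min under kinase-specific conditions with 50 μM biotinylated degenerate peptide sub-libraries and 50 μM ATP spiked with γ-32P-ATP. Each sub-library fixed a single residue at one position around a central Ser/Thr. Relative sub-library phosphorylation, measured by phosphorimaging and densitometry of streptavidin membrane spots, is given as a ratio to the mean residue at that position.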

DAPK1, construct: aa1-363, sequence (P53355 1-363, looked up): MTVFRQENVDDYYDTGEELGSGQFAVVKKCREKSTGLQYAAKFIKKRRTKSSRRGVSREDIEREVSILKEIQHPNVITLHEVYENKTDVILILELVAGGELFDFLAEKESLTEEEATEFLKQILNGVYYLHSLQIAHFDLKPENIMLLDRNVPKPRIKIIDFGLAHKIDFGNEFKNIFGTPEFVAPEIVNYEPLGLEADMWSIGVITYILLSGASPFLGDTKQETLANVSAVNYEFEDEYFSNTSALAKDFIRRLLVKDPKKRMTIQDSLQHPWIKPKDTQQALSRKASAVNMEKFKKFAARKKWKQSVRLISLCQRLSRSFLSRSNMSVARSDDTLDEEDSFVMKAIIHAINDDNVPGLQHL

DAPK1, construct: aa1-363 (from UniProt P53355)
relative phosphorylation
Details	at +1	at +2	at +3	at +4	at -1	at -2	at -3	at -4	at -5
A fixed	0.752	0.793	0.813	0.817	0.743	1.27	0.626	0.975	0.91
D fixed	1.81	0.767	0.98	0.853	0.83	0.333	0.336	0.665	0.58
E fixed	1.76	0.953	0.979	0.857	0.63	0.347	0.374	0.82	0.622
F fixed	0.867	0.998	0.999	1.13	0.771	0.4	0.45	0.844	0.773
G fixed	1.06	0.651	0.978	0.935	0.847	0.662	0.62	0.937	1.03
H fixed	0.714	0.936	1	1.45	1.24	0.987	0.754	1	1.05
I fixed	0.877	1.05	1.95	0.913	0.701	0.308	0.418	0.871	0.955
K fixed	0.476	0.717	0.665	0.72	1.35	1.38	2.1	1.63	1.67
L fixed	0.792	1.92	1.39	0.777	1.18	0.354	0.385	0.796	1.02
M fixed	1.12	1.71	1.04	1.01	1.14	0.387	0.421	0.959	0.954
N fixed	1.47	0.871	0.818	0.985	1.4	0.672	0.483	0.93	0.842
P fixed	0.353	0.724	0.693	0.994	1.04	0.338	0.558	0.677	0.756
Q fixed	2.1	1.03	0.767	0.816	1.06	0.742	0.632	1.03	0.828
R fixed	0.659	1.06	0.832	0.912	1.64	7.29	7.46	2.31	2.36
V fixed	0.821	0.912	1.3	0.792	0.691	0.345	0.297	0.77	0.722
W fixed	0.698	0.827	0.856	1.7	0.695	0.732	0.592	0.856	0.73
Y fixed	0.68	1.08	0.936	1.33	1.05	0.46	0.502	0.928	1.2
pThr fixed	3.07	1.42	1.26	1.87	0.889	0.618	0.741	0.996	1.17
pTyr fixed	1.87	1.41	2.43	1.56	1.33	0.71	0.721	0.94	1.15
